*1 amine or outer side, *2 acyl side, *3 side chain or, on linkers, in order; H or OH if unused. [ ]: non-standard residue; d: D form. The star is where a group is joined. C20 diacid = O=C(O)CCCCCCCCCCCCCCCCCCC(=O)*; C18 diacid = O=C(O)CCCCCCCCCCCCCCCCC(=O)*; γGlu = O=C(O)[C@H](CCC(=O)[*:2])N[*:1]; βAsp = O=C(O)[C@H](CC(=O)[*:2])N[*:1]; AEEA = NCCOCCOCC(=O)O

Sequences and labels used below:
T1: human amylin receptor (AMY3) on CHO-K1/Gal5/AMY3 cells (human, UniProt P30988 25-474; O60896 24-148)
T1 sequence (looked up) 1: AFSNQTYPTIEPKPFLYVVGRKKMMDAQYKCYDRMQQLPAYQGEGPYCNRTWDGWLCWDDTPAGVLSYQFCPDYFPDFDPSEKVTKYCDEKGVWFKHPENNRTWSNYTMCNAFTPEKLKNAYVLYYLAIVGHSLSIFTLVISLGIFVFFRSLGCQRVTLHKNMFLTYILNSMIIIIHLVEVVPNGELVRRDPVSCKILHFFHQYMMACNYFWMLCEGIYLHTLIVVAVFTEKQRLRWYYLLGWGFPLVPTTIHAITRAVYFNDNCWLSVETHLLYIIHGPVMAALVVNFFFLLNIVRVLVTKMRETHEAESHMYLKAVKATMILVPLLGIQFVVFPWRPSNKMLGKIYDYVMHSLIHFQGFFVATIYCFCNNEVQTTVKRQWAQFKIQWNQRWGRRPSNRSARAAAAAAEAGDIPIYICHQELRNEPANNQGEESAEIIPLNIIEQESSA
T1 sequence (looked up) 2: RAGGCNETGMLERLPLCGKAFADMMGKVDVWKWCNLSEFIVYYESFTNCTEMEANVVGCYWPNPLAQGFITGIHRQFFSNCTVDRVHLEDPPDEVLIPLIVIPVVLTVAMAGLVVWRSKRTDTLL

B1: calcitonin derivative M24 (peptide)
peptide: {C18 diacid}-EASQLSTAVLGRLSQELHRLQDYPRTDVGSGSP-NH2
SMILES: CC(C)C[C@H](NC(=O)[C@H](CCCNC(=N)N)NC(=O)CNC(=O)[C@H](CC(C)C)NC(=O)[C@@H](NC(=O)[C@H](C)NC(=O)[C@@H](NC(=O)[C@H](CO)NC(=O)[C@H](CC(C)C)NC(=O)[C@H](CCC(N)=O)NC(=O)[C@H](CO)NC(=O)[C@H](C)NC(=O)[C@H](CCC(=O)O)NC(=O)CCCCCCCCCCCCCCCCC(=O)O)[C@@H](C)O)C(C)C)C(=O)N[C@@H](CO)C(=O)N[C@@H](CCC(N)=O)C(=O)N[C@@H](CCC(=O)O)C(=O)N[C@@H](CC(C)C)C(=O)N[C@@H](Cc1c[nH]cn1)C(=O)N[C@@H](CCCNC(=N)N)C(=O)N[C@@H](CC(C)C)C(=O)N[C@@H](CCC(N)=O)C(=O)N[C@@H](CC(=O)O)C(=O)N[C@@H](Cc1ccc(O)cc1)C(=O)N1CCC[C@H]1C(=O)N[C@@H](CCCNC(=N)N)C(=O)N[C@H](C(=O)N[C@@H](CC(=O)O)C(=O)N[C@H](C(=O)NCC(=O)N[C@@H](CO)C(=O)NCC(=O)N[C@@H](CO)C(=O)N1CCC[C@H]1C(N)=O)C(C)C)[C@@H](C)O
B2: calcitonin derivative M11 (peptide)
peptide: {C20 diacid-γGlu}-ASQLSTAVLGRLSSELHRLQDYPRTDVGSGSP-NH2
SMILES: CC(C)C[C@H](NC(=O)[C@H](CCCNC(=N)N)NC(=O)CNC(=O)[C@H](CC(C)C)NC(=O)[C@@H](NC(=O)[C@H](C)NC(=O)[C@@H](NC(=O)[C@H](CO)NC(=O)[C@H](CC(C)C)NC(=O)[C@H](CCC(N)=O)NC(=O)[C@H](CO)NC(=O)[C@H](C)NC(=O)CC[C@H](NC(=O)CCCCCCCCCCCCCCCCCCC(=O)O)C(=O)O)[C@@H](C)O)C(C)C)C(=O)N[C@@H](CO)C(=O)N[C@@H](CO)C(=O)N[C@@H](CCC(=O)O)C(=O)N[C@@H](CC(C)C)C(=O)N[C@@H](Cc1c[nH]cn1)C(=O)N[C@@H](CCCNC(=N)N)C(=O)N[C@@H](CC(C)C)C(=O)N[C@@H](CCC(N)=O)C(=O)N[C@@H](CC(=O)O)C(=O)N[C@@H](Cc1ccc(O)cc1)C(=O)N1CCC[C@H]1C(=O)N[C@@H](CCCNC(=N)N)C(=O)N[C@H](C(=O)N[C@@H](CC(=O)O)C(=O)N[C@H](C(=O)NCC(=O)N[C@@H](CO)C(=O)NCC(=O)N[C@@H](CO)C(=O)N1CCC[C@H]1C(N)=O)C(C)C)[C@@H](C)O
B3: calcitonin derivative M42 (peptide)
peptide: {C18 diacid}-EASQLSTAVLGRLSDELHRLQDYPRTDVGSGSP-NH2
SMILES: CC(C)C[C@H](NC(=O)[C@H](CCCNC(=N)N)NC(=O)CNC(=O)[C@H](CC(C)C)NC(=O)[C@@H](NC(=O)[C@H](C)NC(=O)[C@@H](NC(=O)[C@H](CO)NC(=O)[C@H](CC(C)C)NC(=O)[C@H](CCC(N)=O)NC(=O)[C@H](CO)NC(=O)[C@H](C)NC(=O)[C@H](CCC(=O)O)NC(=O)CCCCCCCCCCCCCCCCC(=O)O)[C@@H](C)O)C(C)C)C(=O)N[C@@H](CO)C(=O)N[C@@H](CC(=O)O)C(=O)N[C@@H](CCC(=O)O)C(=O)N[C@@H](CC(C)C)C(=O)N[C@@H](Cc1c[nH]cn1)C(=O)N[C@@H](CCCNC(=N)N)C(=O)N[C@@H](CC(C)C)C(=O)N[C@@H](CCC(N)=O)C(=O)N[C@@H](CC(=O)O)C(=O)N[C@@H](Cc1ccc(O)cc1)C(=O)N1CCC[C@H]1C(=O)N[C@@H](CCCNC(=N)N)C(=O)N[C@H](C(=O)N[C@@H](CC(=O)O)C(=O)N[C@H](C(=O)NCC(=O)N[C@@H](CO)C(=O)NCC(=O)N[C@@H](CO)C(=O)N1CCC[C@H]1C(N)=O)C(C)C)[C@@H](C)O
B4: calcitonin derivative M25 (peptide)
peptide: {C20 diacid-γGlu}-LSQLSTLVLGRLSQELHRLQDYPRTDVGSGSP-NH2
SMILES: CC(C)C[C@H](NC(=O)CC[C@H](NC(=O)CCCCCCCCCCCCCCCCCCC(=O)O)C(=O)O)C(=O)N[C@@H](CO)C(=O)N[C@@H](CCC(N)=O)C(=O)N[C@@H](CC(C)C)C(=O)N[C@@H](CO)C(=O)N[C@H](C(=O)N[C@@H](CC(C)C)C(=O)N[C@H](C(=O)N[C@@H](CC(C)C)C(=O)NCC(=O)N[C@@H](CCCNC(=N)N)C(=O)N[C@@H](CC(C)C)C(=O)N[C@@H](CO)C(=O)N[C@@H](CCC(N)=O)C(=O)N[C@@H](CCC(=O)O)C(=O)N[C@@H](CC(C)C)C(=O)N[C@@H](Cc1c[nH]cn1)C(=O)N[C@@H](CCCNC(=N)N)C(=O)N[C@@H](CC(C)C)C(=O)N[C@@H](CCC(N)=O)C(=O)N[C@@H](CC(=O)O)C(=O)N[C@@H](Cc1ccc(O)cc1)C(=O)N1CCC[C@H]1C(=O)N[C@@H](CCCNC(=N)N)C(=O)N[C@H](C(=O)N[C@@H](CC(=O)O)C(=O)N[C@H](C(=O)NCC(=O)N[C@@H](CO)C(=O)NCC(=O)N[C@@H](CO)C(=O)N1CCC[C@H]1C(N)=O)C(C)C)[C@@H](C)O)C(C)C)[C@@H](C)O
B5: calcitonin derivative M58 (peptide)
peptide: {C20 diacid}-E[AEEA][AEEA]ASQLSTAVLGRLSEELHRLQDYPRTDVGSGSP-NH2
SMILES: CC(C)C[C@H](NC(=O)[C@H](CCCNC(=N)N)NC(=O)CNC(=O)[C@H](CC(C)C)NC(=O)[C@@H](NC(=O)[C@H](C)NC(=O)[C@@H](NC(=O)[C@H](CO)NC(=O)[C@H](CC(C)C)NC(=O)[C@H](CCC(N)=O)NC(=O)[C@H](CO)NC(=O)[C@H](C)NC(=O)COCCOCCNC(=O)COCCOCCNC(=O)[C@H](CCC(=O)O)NC(=O)CCCCCCCCCCCCCCCCCCC(=O)O)[C@@H](C)O)C(C)C)C(=O)N[C@@H](CO)C(=O)N[C@@H](CCC(=O)O)C(=O)N[C@@H](CCC(=O)O)C(=O)N[C@@H](CC(C)C)C(=O)N[C@@H](Cc1c[nH]cn1)C(=O)N[C@@H](CCCNC(=N)N)C(=O)N[C@@H](CC(C)C)C(=O)N[C@@H](CCC(N)=O)C(=O)N[C@@H](CC(=O)O)C(=O)N[C@@H](Cc1ccc(O)cc1)C(=O)N1CCC[C@H]1C(=O)N[C@@H](CCCNC(=N)N)C(=O)N[C@H](C(=O)N[C@@H](CC(=O)O)C(=O)N[C@H](C(=O)NCC(=O)N[C@@H](CO)C(=O)NCC(=O)N[C@@H](CO)C(=O)N1CCC[C@H]1C(N)=O)C(C)C)[C@@H](C)O
B6: calcitonin derivative M41 (peptide)
peptide: {C20 diacid}-EASQLSTAVLGRLSDELHRLQDYPRTDVGSGSP-NH2
SMILES: CC(C)C[C@H](NC(=O)[C@H](CCCNC(=N)N)NC(=O)CNC(=O)[C@H](CC(C)C)NC(=O)[C@@H](NC(=O)[C@H](C)NC(=O)[C@@H](NC(=O)[C@H](CO)NC(=O)[C@H](CC(C)C)NC(=O)[C@H](CCC(N)=O)NC(=O)[C@H](CO)NC(=O)[C@H](C)NC(=O)[C@H](CCC(=O)O)NC(=O)CCCCCCCCCCCCCCCCCCC(=O)O)[C@@H](C)O)C(C)C)C(=O)N[C@@H](CO)C(=O)N[C@@H](CC(=O)O)C(=O)N[C@@H](CCC(=O)O)C(=O)N[C@@H](CC(C)C)C(=O)N[C@@H](Cc1c[nH]cn1)C(=O)N[C@@H](CCCNC(=N)N)C(=O)N[C@@H](CC(C)C)C(=O)N[C@@H](CCC(N)=O)C(=O)N[C@@H](CC(=O)O)C(=O)N[C@@H](Cc1ccc(O)cc1)C(=O)N1CCC[C@H]1C(=O)N[C@@H](CCCNC(=N)N)C(=O)N[C@H](C(=O)N[C@@H](CC(=O)O)C(=O)N[C@H](C(=O)NCC(=O)N[C@@H](CO)C(=O)NCC(=O)N[C@@H](CO)C(=O)N1CCC[C@H]1C(N)=O)C(C)C)[C@@H](C)O
B7: calcitonin derivative M59 (peptide)
peptide: {C20 diacid-βAsp-AEEA-AEEA}-ASQLSTAVLGRLSEELHRLQDYPRTDVGSGSP-NH2
SMILES: CC(C)C[C@H](NC(=O)[C@H](CCCNC(=N)N)NC(=O)CNC(=O)[C@H](CC(C)C)NC(=O)[C@@H](NC(=O)[C@H](C)NC(=O)[C@@H](NC(=O)[C@H](CO)NC(=O)[C@H](CC(C)C)NC(=O)[C@H](CCC(N)=O)NC(=O)[C@H](CO)NC(=O)[C@H](C)NC(=O)COCCOCCNC(=O)COCCOCCNC(=O)C[C@H](NC(=O)CCCCCCCCCCCCCCCCCCC(=O)O)C(=O)O)[C@@H](C)O)C(C)C)C(=O)N[C@@H](CO)C(=O)N[C@@H](CCC(=O)O)C(=O)N[C@@H](CCC(=O)O)C(=O)N[C@@H](CC(C)C)C(=O)N[C@@H](Cc1c[nH]cn1)C(=O)N[C@@H](CCCNC(=N)N)C(=O)N[C@@H](CC(C)C)C(=O)N[C@@H](CCC(N)=O)C(=O)N[C@@H](CC(=O)O)C(=O)N[C@@H](Cc1ccc(O)cc1)C(=O)N1CCC[C@H]1C(=O)N[C@@H](CCCNC(=N)N)C(=O)N[C@H](C(=O)N[C@@H](CC(=O)O)C(=O)N[C@H](C(=O)NCC(=O)N[C@@H](CO)C(=O)NCC(=O)N[C@@H](CO)C(=O)N1CCC[C@H]1C(N)=O)C(C)C)[C@@H](C)O

The assay has as its target T1, human amylin receptor (AMY3) on …. The experiment in a line: cell-based or functional assay.
B1: the “EC50/nM, CRE-luciferase in amylin receptor/CRE-luc CHO cells” value is 0.016 nM.
The same measure for B2: 0.017 nM; for B3: 0.016 nM.
For B4, the “EC50/nM, CRE-luciferase in amylin receptor/CRE-luc CHO cells” value was found to be 0.016 nM.
Take B5: the “EC50/nM, CRE-luciferase in amylin receptor/CRE-luc CHO cells” value worked out at 0.017 nM.
For B6, the “EC50/nM, CRE-luciferase in amylin receptor/CRE-luc CHO cells” value is 0.069 nM.
Take B7: the “EC50/nM, CRE-luciferase in amylin receptor/CRE-luc CHO cells” value turned out to be 0.017 nM.

Source of the values: patent publication EP4692114A1, “CALCITONIN ANALOGUE, AND DERIVATIVE THEREOF AND USE THEREOF” (Hangzhou Sciwind Biosciences Co., Ltd., priority 2023, dated 2024).
